The results in this text go back to patent publication US20230212266A1 (FRED HUTCHINSON CANCER CENTER, published 2023).

Assay [1] has as its target T1, SARS-CoV-2 receptor binding domain (RBD) (SARS-CoV-2, UniProt P0DTC2 319-591). The assay can be described thus: BLI, mAb on anti-human Fc probe, antigen in solution. In general terms: BLI is a label-free optical method that tracks binding on a fibre tip over time.
Assay [2] deals with T1, SARS-CoV-2 receptor binding domain (RBD). The experiment in a line: BLI: mAb on anti-human Fc probe, dipped in the antigen.
Assay [3] shares this target. Described as above. The source holds these as a separate data set.
For assay [4] the target is unchanged. The assay can be described thus: BLI, mAb on anti-human Fc probe, antigen in solution. This is another data set of the same source.
Assay [5] has the same target. The assay can be described thus: BLI: mAb on anti-human Fc probe, dipped in the antigen. This is another data set of the same source.
For assay [6] the target is unchanged. The assay can be described thus: BLI, mAb on anti-human Fc probe, antigen in solution. The source holds these as a separate data set.
The target is the same in assay [7]. The experiment in a line: BLI: mAb on anti-human Fc probe, dipped in the antigen. The source holds these as a separate data set.

B1: CV2-40 (antibody, V domains shown)
VH: QVQLVESGGGLVKPGGSLRLSCAASGFTFSDYYMSWIRQAPGKGLEWVSYISSRSSYTNYADSVKGRFTISRDNAKNSLYLQMNSLRAEDTAVYYCARGYDSSGYHYSLWGQGTLVTVSS
VL: QSALTQPASVSGSPGQSITISCTGTSSDVGGYNYVSWYQQHPGKAPKLMIYEVSNRPSGVSNRFSGSKSGNTASLTISGLQAEDEADYYCSSYTNSRTLDVVFGGGTKLTVL
notes: expressed as IgG
As to B1, the binding result in assay [1] is “no binding”.

B2: CV2-45 (antibody, V domains shown)
VH: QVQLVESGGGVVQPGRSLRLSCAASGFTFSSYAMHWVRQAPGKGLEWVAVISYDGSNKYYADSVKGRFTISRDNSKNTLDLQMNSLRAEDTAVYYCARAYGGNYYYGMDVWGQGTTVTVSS
VL: AIQLTQSPSSLSASVGDRVTITCRASQGISSALAWYQQKPGKAPKLLIYDASSLESGVPSRFSGSGSGTDFTLTISSLQPEDFATYYCQQFNNYPLTFGGGTKVEIK
As for B2, the binding result in assay [2] was “no binding”.

B3: CV2-44 (antibody, V domains shown)
VH: QVQLVQSGAEVKKPGASVKVSCKASGYTFISYGISWVRQAPGQGLEWMGWISGYNGNTNYAQKFQGRVTMTTDTSTSTAYMELRSLRSDDTAVYYCARVRIFGVVIIVDTAMVLDYWGQGTLVTVSS
VL: QSVLTQPPSVSAAPGQKVTISCSGSSSNIGNNYVSWYQQLPGTAPKLLIYENNKRPSGIPDRFSGSKSGTSATLGITGLQTGDEAHYYCGTWDSSLSAGVFGGGTKLTVL
Take B3: in assay [3], the binding result is “no binding”.

B4: CV2-42 (antibody, V domains shown)
VH: QVQLVQSGAEVKKPGASVKVSCKASGYTFTSYGISWVRQAPGQGLEWMGWISAYNGNTNYAQKLQGRVTMTTDTSTSTAYMELRSLRSDDTAVYYCARDRRGSGWSWDYYYYGMDVWGQGTTVTVSS
VL: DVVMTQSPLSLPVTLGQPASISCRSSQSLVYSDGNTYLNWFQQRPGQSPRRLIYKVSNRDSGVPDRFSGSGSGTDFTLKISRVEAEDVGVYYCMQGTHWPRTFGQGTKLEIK
notes: expressed as IgG
B4: in assay [4], the binding result is reported as “no binding”.

B5: CV2-50 (antibody, V domains shown)
VH: QVQLVESGGGVVQPGRSLRLSCAASGFTFSSYGMHWVRQAPGKGLEWVAVISYDGSNQYYADSVKGRFTISRDNSKNTLYLQMNSLRAEDTAVYYCAKDPTIFGVVLQIPRFDYWGQGTLVTVSS
VL: EIVLTQSPATLSLSPGERATLSCRASQSVSSYLAWYQQKPGQAPRLLIYDASNRATGIPARFSGSGSGTDFTLTISSLEPEDFAVYYCQQRSNWPPTFGQGTKLEIK
Regarding B5, the binding result in assay [5] was “no binding”.

B6: CV2-43 (antibody, V domains shown)
VH: QVQLVQSGAEVKKPGSSVKVSCKASGGTFSSYAISWVRQAPGQGLEWMGGIIPIFGTANYAQKFQGRVTITADESTSTAYMELSSLRSEDTAVYYCARAYSYDSSGYSPDYWGQGTLVTVSS
VL: EIVLTQSPATLSLSPGERATLSCRASQSVSSYLAWYQQKPGQAPRLLIYDASNRATGIPARFSGSGSGTDFTLTISSLEPEDFAVYYCQQRSNWPPKLTFGGGTKVEIK
notes: expressed as IgG
In the case of B6, in assay [6], the binding result is reported as “no binding”.

B7: CV2-47 (antibody, V domains shown)
VH: QVQLVQSGAEVKKPGSSVKVSCKTSGGTFSNYAISWVRQAPGQGLEWMGGIIPIFGTANYAQKFQGRVTFTADESTSTAYMELSSLRSEDTAVFYCVSRIAAAADFDYWGQGTLVTVSS
VL: EIVLTQSPATLSLSPGERATLSCRASQSISSYLAWYQQKPGQAPRLLIYDASNRATGIPARFSGSGSGTDFTLTISSLEPEDFAVYYCQQRSNWPPLLTFGGGTKVEIK
Turning to B7, the binding result in assay [7] is recorded as “no binding”.
